Measured values reported in patent publication US20260130997A1 (BEAM THERAPEUTICS, published 2026).

Key:
[1] = target: T1, purified CD45 protein N257D (Homo sapiens, UniProt P08575 225-394, limits assumed); assay: biosensor; 100 nM mAb030-9 captured with Anti-Human IgG Fc Capture (AHC), 300 nM purified CD45 protein
T1 construct: Purified CD45 variant of the biosensor assay
T1 chain: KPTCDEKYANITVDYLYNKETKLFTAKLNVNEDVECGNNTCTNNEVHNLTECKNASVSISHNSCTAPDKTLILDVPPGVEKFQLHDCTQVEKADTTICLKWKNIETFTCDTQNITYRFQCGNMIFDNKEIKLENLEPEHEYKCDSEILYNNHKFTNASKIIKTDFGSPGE
Description: (§1) 300 nM of purified CD45 protein was contacted with the immobilized antibody. At 300 s the biosensor was placed in buffer without purified CD45 protein.

[2] = target: T2, purified CD45 protein N286D (Homo sapiens, UniProt P08575 225-394, limits assumed); assay: as above
T2 construct: Purified CD45 variant of the biosensor assay
T2 chain: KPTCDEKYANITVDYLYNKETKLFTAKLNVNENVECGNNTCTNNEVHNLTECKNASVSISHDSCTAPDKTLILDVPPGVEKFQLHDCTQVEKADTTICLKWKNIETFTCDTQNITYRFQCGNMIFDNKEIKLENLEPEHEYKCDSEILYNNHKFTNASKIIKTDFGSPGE
Description: as §1

response [1]: < 0.05 nm | response [2]: < 0.05 nm
B1: mAb U139AGL030-9 (mAb030-9) (antibody, mouse IgG1, kappa, V domains shown)
VH: EVKLLESGGGLVQPGGSLKLSCAASGFDFSRYWMSWVRQAPGKGLEWIGEINPTSSTINFTPSLKDKVFISRDNAKNTLYLQMSKVRSEDTALYYCARGNYYRYGDAMDYWGQGTSVTVSS
VL: DIALTQSPASLAVSLGQRATISCRASKSVSTSGYSYLHWYQQKPGQPPKLLIYLASNLESGVPARFSGSGSGTDFTLNIHPVEEEDAATYYCQHSRELPFTFGSGTKLEIKR
notes: In the biosensor assay the antibody was captured with Anti-Human IgG Fc Capture (AHC); also called mAb30-9; mAb039-9
